According to article PMC11696373 (Nature Communications, 2025):

Biological target: the molecule itself
Assay: cryo-EM structure

B1: human XPR1 (natural protein)
chain: MKFAEHLSAHITPEWRKQYIQYEAFKDMLYSAQDQAPSVEVTDEDTVKRYFAKFEEKFFQTCEKELAKINTFYSEKLAEAQRRFATLQNELQSSLDAQKESTGVTTLRQRRKPVFHLSHEERVQHRNIKDLKLAFSEFYLSLILLQNYQNLNFTGFRKILKKHDKILETSRGADWRVAHVEVAPFYTCKKINQLISETEAVVTNELEDGDRQKAMKRLRVPPLGAAQPAPAWTTFRVGLFCGIFIVLNITLVLAAVFKLETDRSIWPLIRIYRGGFLLIEFLFLLGINTYGWRQAGVNHVLIFELNPRSNLSHQHLFEIAGFLGILWCLSLLACFFAPISVIPTYVYPLALYGFMVFFLINPTKTFYYKSRFWLLKLLFRVFTAPFHKVGFADFWLADQLNSLSVILMDLEYMICFYSLELKWDESKGLLPNNSEESGICHKYTYGVRAIVQCIPAWLRFIQCLRRYRDTKRAFPHLVNAGKYSTTFFMVTFAALYSTHKERGHSDTMVFFYLWIVFYIISSCYTLIWDLKMDWGLFDKNAGENTFLREEIVYPQKAYYYCAIIEDVILRFAWTIQISITSTTLLPHSGDIIATVFAPLEVFRRFVWNFFRLENEHLNNCGEFRAVRDISVAPLNADDQTLLEQMMDQDDGVRNRQKNRSWKYNQSISLRRPRLASQSKARDTKVLIEDTDDEANT
- stoichiometry N: 2
